Target: T1, wild-type Met1-linked di-ubiquitin (UniProt P0CG48 1-76; P0CG48 1-76)
T1 construct: ubiquitin, first moiety of the linear fusion (residues 1-76 of the di-ubiquitin); ubiquitin, second moiety of the linear fusion (residues 77-152 of the di-ubiquitin); In the crystal each di-ubiquitin bridges two SnOTU molecules: residues 1-76 lie in the S1' site of one SnOTU and residues 77-152 in the S1 site of the other; also called linear di-ubiquitin; M1-linked di-ubiquitin; source: expressed …
Assay: crystal structure; catalytic inactive SnOTU 1-255 and linear di-ubiquitin mixed in a 1:1.1 ratio; sitting drop vapor diffusion, 4 °C; 0.25 M magnesium formate, 20% w/v PEG 3350, 0.02 M EDTA disodium salt
Conditions: both partners purified

B1: catalytically inactivated (C82A) fragment SnOTU 1-255 (domain or fragment)
chain: MSLPVKERPDAIYTFEGKTYENTSFSKTGIPIVGQPLKMEAYVHKEYTHVTSLEGKRFKSQLEEAAKIYGEQLHEIQGDGNALTTAFATSFLYLLNGNATLIATFDNILIGLDAHKNIPPVRQTIEKLKVKNDLELKQILASNETMFAFSSVIRHLARQKLPELGEPFSLLIDEMVPEEDGKEIEIACIGGLCQLLNICADVIYLRKDYDTFKIERYPNETGKPDLVILRKAAHFLSIILDSKKSIEERTNELGK
notes: resolved from residues 2 to 242 in PDB 8CMR; Amplified from S. negevensis genomic DNA (DSM No.27360), cloned into pOPIN-S; source: E. coli Rosetta (DE3) pLysS, purified (HisTrap FF, tag removal, SEC); not shown: His6, N-terminal, cleaved; Smt3, N-terminal, cleaved
binding result: binds
